Assay: label from the status in PepcDB records

Sequence	protein production
MTTIRVENLSKIFKKGKTEVKAVDNVSITIDSGMAFGVLGPSGHGKTTFLRLIAGLEEPTSGYIYFDNEAVSSPRRVMMSPEKRGIAMVFQNWALYPNMTVFDNIAFPLKLAKVPKDKIENKVKEVSEELGLSGVLNRYPKELSGGQMQRTAIARALVKDPKVLLLDEPFSNLDAQIRESARALVRKIQRERKLTTLIVSHDPADIFAIANKAGVIVNGKFAQIGTPTEIYEYPATDLIARLTGEINLIQAKIIENNAIIANLKVPLNNMELKGQSNIVIGLRPDDLTLSDTLLDKYIDMGIVKVKLVSYGAGIFKIVVSPITDENIDIIVDAEEPLETGIETHLLAKPNKVKIFDLNGSNLITSKTQIIK	failed
MTTIVPTSEENPFLAVVRFTSQLAWADAGPEAAEPEITRLCREAEESMVAEKWLELSSLMVTSAELVSSKISEKDLECTYTIICSIVKNAKSPEQVLEMVKAIASKVAQQPSDKASLRLKILFNLYNLVDHPYARFQVYMKALTLAVDGKVTEYIVSSFKKIDNFLKEWNIDIKDQRELFLAIANVLKENKSLVNESLKFLTKYLATFSNEDAQVLDEAKEEAVRAVIEFVKASSIFQCDLLDLPAVAQLEKDAKYAPVYQLLKIFLTQRLNAYTEFQNANSGFLQSYGLSNEDCVTKMRLLSLVDLASDESGKIPYTSIKDTLQVNEQDVELWIVKAITAKLIESALPNVNLGQSNGNLSEQSLRLGSIITTIESNKVTEEGSQASSSSAAAIQGLSVR	failed
MTTKLDPEALNVSEEARERGTGYLNVALFGVDSRDNELEKDTRSDTIMIASLNRETMEVKISSVYRDTLLEQSDGTLNKANAAYSFGGPETAVAMLNKNLDMDIEHYVTVNFNSLIDVIDAVGGVEIDVQEEEIPYICGYAMEIMRVTGRESAGVTEPGVQTLNGIQATAYARIRYTAGDDFKRAERQRDVLTKIVGKLQGASLAQINKIIDKVFPEVSTNFTLAEILEYAKDAFDYKLGETIGFPFDKTTDTLANIGSVVIPVTLDKNVEQLHKFFYGEGDTYSPSSTVNTISGKIVAKAGDRQADTDEDSQGIMQQPDESYTGGGSSGGTKTPSSGGTSGGSSQPTPTPTPTPTPTPEPDPQPQPDPGGDDGSGGSGGDTSGGGAEGTPDAGTQLEHHHHHH	failed
MTTLGIVSDTHGYFHPNLADDLSGVDRILHAGDVGDPAILDGLEAVAPVTAVWGNIDDASLRRRLAEHERFTVAGLDVWMTHIAGRPGRWQDGMGTKLEATPPDVLVCGHSHILQVERVAALDDMLYVNPGAAGKQGFHQTKTCLRLAVEDGRATEAAVVHLDPDASPAQAPDP	failed
MTTLTAQQIACVYAWLAQLFSRELDDEQLTQIASAQMAEWFSLLKNEPPLTAAVNELENRIATLTVRDDARLELAADFCGLFLMTDKQAALPYASAYKQDEQEIKRLLVEAGMETSGNFNEPADHLAIYLELLSHLHFSLGEGTVPARRIDSLRQKTLTALWQWLPEFVARCRQYDSFGFYAALSQLLLVLVECDHQNR	failed
MTTNPYTGEREAGKSAIGAGLGSLVGAGIGALSSSKKDRGKGALIGAAAGAALGGGVGYYMDVQEANVRDKMRGTGVSVTRSGDNIILNMPNNVTFDSSSATLKPAGANTLTGVAMVLKEYPKTAVNVIGYTDSTGGHDLNMRLSQQRADSVASALITQGVDASRIRTQGLGPANPIASNSTAEGKAQNRRVEITLSPLLEHHHHHH	not failed
MTTNRYMKGIMWAMLASTLWGVSGTVMQFVSQNQAIPADWFLSVRTLSAGIILLAIGFVQQGTKIFKVFRSWASVGQLVAYATVGLMANMYTFYISIERGTAAAATILQYLSPLFIVLGTLLFKRELPLRTDLIAFAVSLLGVFLAITKGNIHELAIPMDALVWGILSGVTAALYVVLPRKIVAENSPVVILGWGTLIAGILFNLYHPIWIGAPKITPTLVTSIGAIVLIGTIFAFLSLLHSLQYAPSAVVSIVDAVQPVVTFVLSIIFLGLQVTWVEILGSLLVIVAIYILQQYRSDPASD	failed
MTTPEGGARKPRIGIMGEFSAGKSTLSNLLLGQRILPEQVTATRLPPVWIVQGDKPAQRAALDGSLHPMSLVDLEEISLEETLYVKIGIDAPVLDECDLIDFPGISDPNMPSEVWERMLAEVDSVLWCTHATQAWRQSEAAAWGMVPEAVRQRSLLLITRFDKLTTPLDKLRVQTRVARETEGLFAGVCPISLTEALAAAPDSPEWEASGAETFADALEAVVRAAACGGLPEAMPAQTQLTAPAAPEPAEPSTSAPQPAPGRVMPRRVRPKGETRTPRPSARPQAADQDLSALRREMQET	failed

From a protein production outcome set (Wang et al. 2014)
